Data on one molecule can be found in patent US20020040062A1, “Protein kinase C activators and their use in decreasing expression of cell antigens” (The Trustees of Columbia University, priority 1993, published 2002).

Common to all, as to format: cell-based, human
The subject of one assay is HLA Class II antigens. As to the kind of experiment: FACS analysis of HLA Class II antigen surface expression in T47D cells. An excerpt:
(§1) IgG1 murine monoclonal antibody Cu18 and Cu46 recognize two different epitopes of a highly restricted breast carcinoma associated glycoprotein of Mr 225,000 to 250,000 (BCA 225). This TAA is expressed intracytoplasmically and on the membrane of 94% of breast tumors tested and in the T47D human breast carcinoma cell line. BCA 225 is shed into the culture medium by T47D cells and into the sera of breast cancer patients. IgG2a monoclonal antibody L243 (anti HLA Class II-DR) recognizes a monomorphic HLA Class II-DR-α epitope (ATCC M355). Monoclonal antibody CL203.4 [40], which recognizes ICAM-I, was kindly provided by Dr. S. Ferrone, New York Medical College, NY. The c-erbB-2 monoclonal antibody which recognizes the extracellular domain of c-erbB-2 was obtained from Triton Biosciences, Inc., Alamedia, Calif. Monoclonal antibodies Cu18 and Cu46 were used at 0.05 μg/ml and monoclonal antibodies interacting with HLA Class II-DR, ICAM-1 and c-erbB-2 were used at 10 μg/ml.
(§2) T47D cells treated with the various compounds were analyzed by flow cytometry using appropriate monoclonal antibody concentrations as described previously. Briefly, 1×10^5 cells were incubated with the test antibody for 30 min at 4° C., washed 3× with PBS and incubated with a goat a mouse F (ab)2 FITC conjugated test antibody at a 1:40 dilution for 30 min at 4° C. Cells were then washed 3× with PBS and analyzed on a FACStar (Beckon Dickinson, Mountain View, Calif.) or a Coulter Epics IV FACS (Coulter, Hialeah, Fla.). Results are expressed as mean fluorescence intensity (MFI) units which were determined as described previously. MFI=(mean channel fluorescence in fluorescence positive antibody-binding cells×% of fluorescence positive antibody-binding cells)−(mean channel fluorescence in unstained cells×% of fluorescence positive cells in the unstained population). All studies were performed a minimum of three or four times with duplicate samples in each experiment.
For orientation: A flow cytometer gives signals particle by particle.

The subject of assay [1] is BCA 225. The assay can be described thus: FACS analysis of BCA 225 surface expression in T47D cells. The note with it: 72 hr, 500 units/ml IFN-β or 50 units/ml IFN-γ, presence or absence of 1.0 μg/ml H-7.
Source text: as §1, with “μg/ml. For each experiment, isotype matched control backgrounds (IgG for Cu18, Cu46 and ICAM-1, IgG2a for HLA Class Ii and IgG2b for c-erbB-2) were subtracted from the experimental results. Background from antimouse IgG FITC antibody was also subtracted from experimental results. Applicants never observed backgrounds higher than 2% of total cells for isotypic mouse IgG or higher than 5% for antimouse IgG FITC.” for “μg/ml.”
as §2, with “experiment. Replicate samples within individual experiments varied by ≦10% and variation between experiments were generally ≦20%.” for “experiment.”

Assay [2] concerns BCA 225. As to the kind of experiment: BCA 225 synthesis, double-determinant ELISA of T47D cell lysates. Conditions: T47D cells, 72 hr, 500 units/ml IFN-β or 50 units/ml IFN-γ, presence or absence of 1.0 μg/ml H-7. On the procedure:
(§3) After appropriate incubation times with the various compounds cell lysates were prepared from T47D cells. Cells were washed 3× in PBS, pH 7.6, pelleted and incubated for 1 hr at room temperature in 20 mM Tris HCl, pH 7.4, with PMSF. Cultures were then homogenized with a Teflon homogenizer, centrifuged at 3000 RPM for 10 min at 4° C. and the supernatant was mixed 1:2 with 20 mM Tris-HCl, pH 7.4, containing 0.5% NP40 (Sigma). After 1 hr at 4° C., the mixture was spun at 3000 RPM for 10 min and the supernatant was passed through an EXTRACTIGEL column (Pierce, Ill.) to remove excess detergent. Protein concentration was determined by the BCA micro-method (Pierce, Ill.). BCA 225 levels in cell extracts and supernatants from control and treated T47D cells were quantitated using a double-determinant ELISA assay. Briefly, Cu18 monoclonal antibody coated Nunc Immunoplates (Nunc, Denmark) were blocked with 1% BSA (Sigma, RIA Reagent Grade) and incubated with a 1:2 dilution of supernatant in duplicate. Standard values for a partially purified BCA 225 preparation were used at a range of 0 to 10 μg/ml in RPMI 1640 plus 10% FBS (T47D growth medium). After 2 hr incubation and three washings with PBS 0.1% Tween 20 a Cu46 monoclonal antibody conjugated to peroxidase was applied to the plate, incubated for 2 hr, washed 6× in PBS 0.1% Tween 20 and the reaction was developed with […] OPD (Sigma, St. Louis) and 4 μl of 30% H2O2 in McIlvans buffer, pH […]. The plates were read on a Dynatech Elisa reader and a linear standard curve was generated and used to calculate the relative amount of BCA 225 in cell lysates and shed into the culture medium. Results were adjusted to ng BCA 225 per mg of protein, or per 1×10^6 cells. Replicate samples varied by ≦10% and replicate experiments varied by ≦20%.

In assay [3] the test system is BCA 225. The assay can be described thus: BCA 225 shedding into culture medium, double-determinant ELISA. The note with it: T47D cells, 72 hr, 500 units/ml IFN-β or 50 units/ml IFN-γ, presence or absence of 1.0 μg/ml H-7. As for the experimental part: as §3
For orientation: An ELISA detects its analyte on a solid surface through an enzyme-linked reagent.

B1: IFN-γ: recombinant human immune interferon produced in Escherichia coli (protein, UniProt P01579 24-161, looked up)
Interferon gamma: QDPYVKEAENLKKYFNAGHSDVADNGTLFLGILKNWKEESDRKIMQSQIVSFYFKLFKNFKDDQSIQKSVETIKEDMNVKFFNSNKKKRDDFEKLTNYSVTDLNVQRKAIHELIQVMAELSPAAKTGKRKRSQMLFRG
For the molecule B1, the “fold increase in HLA Class II expression” value in the assay with HLA Class II antigens (500 units/ml IFN-α, IFN-β or IFN-γ as in Table 3) was 69 fold. Also, the “HLA Class II relative increase in expression versus untreated controls (equivalent to 1.0)” value with HLA Class II antigens (72 hr, 500 units/ml IFN-β or 50 units/ml IFN-γ, presence or absence of 1.0 μg/ml H-7) stood at 69.2. Moreover, in the assay on HLA Class II antigens (72 hr, 500 units/ml IFN-β or 50 units/ml IFN-γ, presence or absence of 1.0 μg/ml H-7, Coulter Epics IV FACS), the “Antigenic Expression (MFI) HLA Class II” value is listed as 202,102 MFI. In the assay on BCA 225 [1], the “BCA 225 Expression” value was 9,069 MFI and the “BCA 225 Expression, relative change in comparison with controls (equivalent to 1.0)” value came out at 3.2. In addition, in the assay with BCA 225 [2], the “BCA 225 Synthesis” value is 722 ng/mg protein and the “BCA 225 Synthesis, relative change in comparison with controls (equivalent to 1.0)” value stood at 3.2. In the assay on BCA 225 [3], the “BCA 225 Shedding” value is 64 ng/ml/10^6 cells and the “BCA 225 Shedding, relative change in comparison with controls (equivalent to 1.0)” value is recorded as 1.4.
